From paper PMC12421412 come the findings set out here.

In the assay the target is ectodomain of APP^695 (amyloid precursor protein). The assay can be described thus: SPR; ectodomain of APP^695 coupled to the sensor chip surface; purified SORLA ectodomains as analyte; neutral pH; data also analysed with EVILFIT. (SPR reads the build-up and loss of mass on a sensor chip optically.)

Substance “soluble mutant SORLA^N1358S ectodomain, hexa-His-tagged (from UniProt Q92673 82-2137) (domain or fragment)” displayed an SPR sensorgram peak (response units) of 1650 RU.
“soluble wildtype SORLA ectodomain (Sortilin-related receptor with A-type repeats), hexa-His-tagged (from UniProt Q92673 82-2137) (domain or fragment)” yielded an SPR sensorgram peak (response units) of 1750 RU.
